In patent US20250084169A1 one finds EC50 (pM) Neutralization, pseudovirus and fold less potent than REGN10933, pseudovirus neutralization data, which are given here for 1 substance.

Where “and” joins values, the source holds several entries; their conditions need not be identical. Equal entries are not always repeated.

The target of test [1] is SARS-CoV-2 spike N439K variant on pseudovirus (RVP-703) (SARS-CoV-2) (UniProt P0DTC2). The test can be described thus: cell-based or functional assay.
For test [2], the target named is SARS-CoV-2 spike South African Δ3 B.1.351 variant on pseudovirus (RVP-724) (SARS-CoV-2) (UniProt P0DTC2). Nature of the test: cell-based or functional assay.

Consider “Imdevimab (biosimilar version) (antibody)”, for which, in test [1], the EC50 (pM) Neutralization, pseudovirus was 2260 pM and 2220 pM; the fold less potent than REGN10933, pseudovirus neutralization is 1000 fold. Further, in test [2], the EC50 (pM) Neutralization, pseudovirus is 2.48 pM and 2.37 pM.
